Results: PMC11831497

Assays:
Conditions in all cases: glycan lost; control: CTSD WT
western blot = assay: western blot
[1] = CTSD secretion from CRC cells
[2] = cycloheximide chase, western blot
[3] = western blot at equal CTSD expression, SW480
[4] = fluorogenic Cathepsin D activity kit, cell lysate
[5] = immunofluorescence co-localisation with EEA1, Rab7, LAMP1, SW480

Substance	other: ferroptosis protein levels (SLC7A11, GPX4) (western blot)	expression_or_secretion [1]	degradation_or_half_life [2]	other: cellular level of substrate ACADM [3]	enzymatic_activity [4]	localisation_or_trafficking [5]
Cathepsin D (CTSD): N263Q	decreases	decreases	decreases	increases	decreases	abolishes
Cathepsin D (CTSD): N263Q/N134Q	–	increases	–	–	decreases	abolishes
